From the DeepSol protein solubility set

Assay: soluble on expression in E. coli; label from the status in PepcDB or PDB records

Row | Sequence | soluble on expression in E. coli
1 | MPQTSAWQLNDTTARPPPPPPPPGSEAGGSDGASMNGANTLPRVSKRVSAAGKTSNIPRFKRPHLPHSTRPLSAVLTSSSSPVVHRKISPSSSAPSTSSAHRRFSHLPQQHFHHHIHHNQTAVISEETLTTPRASTLNLNQTSVFPTAISQGSMPNSGTNTAEASMTSSVCAMETEGTNGDELAESRDMVSEMQRRCRIGPSGYPHLLKAKRLRFYRNGDQYFKGIQYALQSDRVKSMQPLMEDLMKTVICDSTALPHGIRHIFTIDGAQRITSVDQFEDGGGYVCSSTDAFKPVDYSRAAEPSWRLTLANRYNRHLETKKLALSVVEPCHENTDFVFPRIIKVIRNGVKPRRISRHLLNKKTARSFDQVLRDLTFVVKLDSGAIRKLFTLSGRPVLSLQDFFRDDDVFVAYGGNEKMAADDLLVASEEHKSVGSGTSSNMRRTSRRSTMPNRNESLRHDRSGSVIPDQDQQRLPPLLDEKFQLVRLIGDGNTAVVYEVIDKTNNDDRKAMKVIARENVIGKEHLIEMELAILQKIDHTFIVQLYDHWFVDDSYYLSLELIEMGDLFEHLRIVRRVPERDAVRMMTCLGQALEYIHELGIVHRDVKLENLLIVKDEFGELGVKLADFGLAAEMPKDFGVLSTICGTPTYVAPEVLNKTGYGCKVDIWAAGVILYAILVGFPPFQSSDGSEQDLFSAIMSGEFSFPSPSWDDVSWSVRHLIMCLIHTDPFHRYSAGELLNDEWMVNLGDVDPEYEEWAHRFVQSKMHVEEEQETPYEYYTSRRTSMDELSESAAVEFSYSCES | not soluble
2 | MPNTLKRLIPDPEVIKLQQLLSSNGYFEEIKPSHGLFDGITFDNAVLFQLQHIYKDGDPLKPDGVIGAKTWWALKNPSGEKQRNHLSASIPAGLTTKRHQLIELIIEEHSKPVFEVPDGSNRSPDIDGYWGNTGVIGLAWCCAFVSWVLKEVTDSYPIASTHHLGVQRMWRTAKRLNMTTEIPKPGDIFVQLFAGGKGHTGFVVAVTEDGETIYTCEGNCGNRLKIGKRSNNSELHFIDCLQDNQTLDFERMAFDVNSTIDNTTRLEHHHHHH | not soluble
3 | MKVLEYRFAIAPMFHFIANKSMEAGLHVCDGHAKQTVQLFMNDAVSEKGKKRIGAIQYEGSNDYTAKEPCMVNWRFERALLPDGLKQDLEAITAFRRDQNEGTAINPNAQSIAFKFEALTDAAKETIEAITAVLQKHARC | not soluble
4 | MAKGVAVLSSSEGVAGTILFTQEGDGPTTVTGNISGLKPGLHGFHVHALGDTTNGCMSTGPHFNPAGKEHGSPEDETRHAGDLGNITVGDDGTACFTIVDKQIPLTGPHSIIGRAVVVHADPDDLGKGGHELSKSTGNAGGRIACGIIGLQG | soluble
5 | MGSDKIHHHHHHMADWTDNLPEAAQAYLENRRLDEVECIISDLPGIARGKAVPASKFARQDYFHLPDSIFYQTITGDWGDAAGEEGFIERDMILRPDYSTATAAPWTGDWTLQVIHDAYDRDGDPIPFSPRNVLRRVVSLYHAQGWKPVVAPEMEFFLVARNLDPAKEIEPMMGRSGRPAAARQAYSMTAVDEFGPVIDDIYDFAEAQGFEIDGITQEGGAGQLEINLRHGSPVRLADEVFYFKRLIREAALRHNCFATFMAKPIENEPGSAMHIHHSIVDMETGENIFSGPQGGETDAFYHFIAGLQNHLPSGLAVMAPYVNSYRRYVKDHAAPINLEWGRDNRTTGIRVPLSGPAARRIENRLAGMDCNPYLGIAVSLACGYLGLMEELRPRKQFKGDAYVGEGDIPQVMGDALDLFDEAKALHEVLGPEFARVYSIVKRAEYNEFLQVISPWEREHLLMNV | not soluble
6 | SLSARSSHLSQPVVKSVLVYRNGDPFYAGRRVVIHEKKVSSFEVFLKEVTGGVQAPFGAVRNIYTPRTGHRIRKLDQIQSGGNYVAGGQEAFKKLNYLDIGEIKKRPMEVVNT | soluble
7 | MSLKQERQEKIEVLKEFKDDGATKFSSYYFDLKKNQILSSGSLTTSWRVIDFSEVLSYQVNRNGHLEQKHHGIARAVTGGIMAGGVGAIVGTTTGENTDYIDHLGLVINLSDGTNFEVKFLKTKTKTNSFTVKTAEGELRSLISIVQSGMNKAQEKAEQEQTKANTIKIESNADPAEEIRKFKKMADEGIISNEEFEAKKKQLLNLQEGHHHHHH | soluble
8 | MKRFLLSLLALTTLVGCNSKDDNTPTPAKPLSEQQQAYLPTKKVKRISCTYIDEGTTSNTNSPNSYLEAELYNQTYTLRTAEYLYEYDNMGRINKVTIKQERKPEDVRTFTYKDYSVIITAPYDTEVNGQYDIQAVEYGLNAAGNTLGFGMYNEKQQLKSVGDEIITWENDNITKIISKDDREGNKILETVLTYYNNENKNKFNVFSFDFSRESRSFMNYFEMPIALIIGASPKNLPKKVVIPSSRYNGEIENKIIELTYTFDNDGFVKNISENEYLRTGTSVGAYYQNSSYGDIDATTMSNTLQDLMTKIDNGTVTGKSYKIINNKQNERVIQFTIPIKVEKDSNGKPLNLIVDKICEYTFRYITENNQKKLSQIEMNITFKPHLVTHYELNY | not soluble
9 | MAIIASNNSWDLYQLAVVILNYRTPQLVVDCLASLVSQIDPQTQQVIVVDNASGDDSVEEIEKAIANNNWQDWVRLLPSDVNGGFSAGNNLGIQAIRAENYLLLNSDTIVRPGAIQTLLVALEQYPEAGLFSPRLEWPDGTPQISCFRDHSPLSEMIDGARTSVITKLLQPFDVPIPVTEQSFEPQWTSFACVLIRRSVVEQIGLMDDGYFMYYDDIDYCRRARQAAWKIRYIPQASVVHLRGGSGSVKSDVASRKRPRPYLYASRSRYFAKFYGPLGLALANLGWLGGWGIAALREILGQKEPHTCDRQWQDIWFQWRQPLKPYRPELEHHHHHH | soluble
10 | MKVTLPDFRRAGVLVVGDVMLDRYWYGPTCRISPEAPVPVVKVDTIEERPGGAANVAMNIASLGAVARLVGLTGIDDAARALICKLSEVRVRCDFVSVPTHPTITKLRVLSRNQQLIRLDFEEGFDGVDPTPIFERIQLALPQIGALVLSDYAKGALNSVQPMIQLARKANVPVLIDPKGSDFERYRGATLLTPNLSEFEAVVGRCKNEEELVNRGMQLVADFELSALLVTRSEQGMTLLQLGKPPLHLPTQAKEVFDVTGAGDTVIGVLAAALAAGNSLEESCFLANAAAGVVVGKLGTSTVSPIELENAIRGRAETGFGVMDEQQLKIAVAQARQRGEKVVMTNGIFDILHAGHVSYLANARKLGDRLIVAVNSDASTKRLKGEKRPVNPLEQRMVVLGALEAVDWVVPFEEDTPQRLIADILPDLLVKGGDYKPHEIAGSEEVWAAGGEVKVLNFEDGVSTTNIIQSIKNGRG | not soluble
11 | MKEAGILFEELVSIMEKLRSPEGCEWDRKQTHESLKPYLIEECYELIEAIDEKNDDMMKEELGDVLLQVVFHAQIARERGAFTIEDVIRTLNEKLIRRHPHVFGDSPGYSYKQWEDIKAQEKGKKKSSRIGEINPLVPALSMARRIQENASQVGFDWKDPEGVYEKIEEELKELKEAKDPRELEEEFGDLLFSIVNLSRFLNVDPESALRKATRKFVERFKKMEELIEKDGLVLEELPIEKLDEYWEKAKGGDET | soluble
12 | MSLSPLSKLDKIAVSGNKQLTENEVRKESGLEIGEFVIGISNGKTEDTLKKNTLIKDATVSKEGINDVQINITEFKTIGYQQQDGKYYDVLESGIMLTDQPRQFPIGNDLLFQNFKNGKTLEKMVAQINKLPKDVVSSISEVIYSPTKTDKNHIKLYMNDGNQVSADISTFAEKMQHYPAIVAQLAKGQKGVIDIEVGSYFQSYYQQNAEKKAAEEAAKEKKETNEGHHHHHH | soluble
13 | MAHHHHHHMCSTNQKLACCSGDNVFDTKENENDSYPQMVNKQLPPKVLEPIVQNKIVEVPKEVYLEKIVEVPQIKTVERIVEQIRPVIKYKNVYKTKTVYVEKIKNVDRIIYQEKIVEVPQIKTVEKIVEVPVYVDRERIITAPRYMVVEKVIPVLKTTKKESVMEIPEVNCPNIDITQEVESKEEIQIEDLKENQTTSVVHEKDIQLLNDLNIQKMHSSATLNAEADQDTTADTIQNDNFCSTVSCKFLPMYDNFPKMQYSMCNGFPEREKRFSSINIYKSKEEGFPKIRISKTPQIIQRNCYCNYA | not soluble
14 | PQPGAARGLGRVAYADARQHRDILQSLVRALNGSRRRIWLATPYFLPTWKVRRALRKAAQRGVEVRLLLAGRLTDHAPVRYAGQRYYPRLLRAGVRIHEYQPRFLHLKMVMVDDWVSVGSCNFDHWNLRFNLDANLEALDPDFTNEAAASLLADFADSREVTLAMWRARPLWMR | not soluble
15 | MGSDKIHHHHHHQPTGTMTTDSKLTSKESALALTNSAYLKNTVFNKMTPGWGCNTILLLEYMTGKATSENSQSNYKDFQDLLVSDRSLYIEDWWQDCYAGIANCNLALQKLGEFENLDASLVNGYMAEVKFMRALYYFYLVRIFGDVPKITTVQSELGELQVSRAPVKEIYDEIIIPDLLEAEQSDLAFSDHTGRVSMGAVKALLADVYLTYAGYPLQGGKSYYAESAKRSLEVIKSNEYTLFTDYESLRLPSQNNKGEFIYQVQFSLNKRHNESVRIFLPSRSGISAYDLEYGSLIPTKEFVESFEKGDKRTEEKQYFFTNYKGHPSKFSPGAAELEFMDLNGYYIYKFFDQVAVDNTAKSDLNWSVYRYTDVLLMYAEAQVNADGTPNQQSIDIVNQIRGRAGLAPFKQTNASAFLEEVWDQRYFDLCYENKMWFDMLRTRKIRDDKSGEYVDFIGYKTNWGKVYTETQLLFPIPLSERQANPNLTQNQGY | not soluble
16 | MMIDPELRPAFLPAGKLRAAINLGNPILAGTDAAGQAVGVSVDLAREFARRLNAGIELRVFDTAGQSVDAVTREEADIGFFAIDPARGAGIAFTGPYVLIEGAYLVRDDSPLQANEDVDRAGKRVTVGKGSAYDLHLTRALQHAEIVRAASSQAVVDTFLARRLDVAAGVKQQLQADARRVGGVRLLPGRFMVIRQAMGLPKARGDAAAACLDAFVESMKGNGFVAQALARHGLEHHHHHH | not soluble
17 | MRGLTPEQTLMLADAFCAQTSGDLSVRDYAALNAIAAVTTAHIHAVVVFPTAHHMVKYVRSLVIQLSPLDDRNTDFADFLVAVLRDLNGL | not soluble
18 | MHHHHHHSSGVDLGTENLYFQSMKSVHSSPQNTSHTIMTFYPTMEEFADFNTYVAYMESQGAHQAGLAKVIPPKEWKARQMYDDIEDILIATPLQQVTSGQGGVFTQYHKKKKAMRVGQYRRLANSKKYQTPPHQNFADLEQRYWKSHPGNPPIYGADISGSLFEESTKQWNLGHLGTILDLLEQECGVVIEGVNTPYLYFGMWKTTFAWHTEDMDLYSINYLHFGEPKTWYVVPPEHGQHLERLARELFPDISRGCEAFLRHKVALISPTVLKENGIPFNCMTQEAGEFMVTFPYGYHAGFNHGFNCAEAINFATPRWIDYGKMASQCSCGESTVTFSMDPFVRIVQPESYELWKHR | soluble
19 | VKLTDVDFAVEASGMVRAFNQAGVLDVSDVHVAQRLCALAGESDERVALAVAVAVRALRAGSVCVDLLSIARVAGHDDLPWPDPADWLAAVRASPLLADPPVLHLYDDRLLYLDRYWREEEQVCADLLALLTSRRPAGVPDLRRLFPTGFDEQRRAAEIALSQGVTVLTGGPGTGKTTTVARLLALVAEQAELAGEPRPRIALAAPTGKAAARLAEAVRREMAKLDATDRARLGDLHAVTLHRLLGAKPGARFRQDRQNRLPHNVIVVDETSMVSLTLMARLAEAVRPGARLILVGDADQLASVEAGAVLADLVDGFSVRDDALVAQLRTSHRFGKVIGTLAEAIRAGDGDAVLGLLRSGEERIEFVDDEDPAPRLRAVLVPHALRLREAALLGASDVALATLDEHRLLCAHRDGPTGVLHWNRRVQAWLAEETGQPPWTPWYAGRPLLVTANDYGLRVYNGDTGVVLAGPTGLRAVISGASGPLDVATGRLGDVETMHAMTIHKSQGSQVDEVTVLMPQEDSRLLTRELLYTAVTRAKRKVRVVGSEASVRAAIARRAVRASGLRMRLQSTGCG | soluble
20 | MGATLTVAVAACTVSTPTSAIPVTHIKCLRINGQIKCVKPISPNTTPAAEHIEHVRKNPRRKAAMDRAAARIADKIALKAGGETFVSLRMKKGFTQSELATAAGLPQPYLSRIENSKQSLQDKTVQKLANALGVSPLEVRAAFERRYEYMEQA | soluble
